Laboratory results as given in patent US20220332804A1 (CSL INNOVATION, published 2022).

Experiments:
Experiment in all cases: SPR, antibody captured, C2 as analyte;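 further: biacore SPR at 37 °C, anti-C2 mAbs captured via goat anti-human IgG on CM5 chips, double-referenced sensorgrams fit to a 1:1 kinetic or steady-state model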
human C2 A470S = target: T1, human C2 A470S (human, UniProt P06681 21-752)
T1 sequence: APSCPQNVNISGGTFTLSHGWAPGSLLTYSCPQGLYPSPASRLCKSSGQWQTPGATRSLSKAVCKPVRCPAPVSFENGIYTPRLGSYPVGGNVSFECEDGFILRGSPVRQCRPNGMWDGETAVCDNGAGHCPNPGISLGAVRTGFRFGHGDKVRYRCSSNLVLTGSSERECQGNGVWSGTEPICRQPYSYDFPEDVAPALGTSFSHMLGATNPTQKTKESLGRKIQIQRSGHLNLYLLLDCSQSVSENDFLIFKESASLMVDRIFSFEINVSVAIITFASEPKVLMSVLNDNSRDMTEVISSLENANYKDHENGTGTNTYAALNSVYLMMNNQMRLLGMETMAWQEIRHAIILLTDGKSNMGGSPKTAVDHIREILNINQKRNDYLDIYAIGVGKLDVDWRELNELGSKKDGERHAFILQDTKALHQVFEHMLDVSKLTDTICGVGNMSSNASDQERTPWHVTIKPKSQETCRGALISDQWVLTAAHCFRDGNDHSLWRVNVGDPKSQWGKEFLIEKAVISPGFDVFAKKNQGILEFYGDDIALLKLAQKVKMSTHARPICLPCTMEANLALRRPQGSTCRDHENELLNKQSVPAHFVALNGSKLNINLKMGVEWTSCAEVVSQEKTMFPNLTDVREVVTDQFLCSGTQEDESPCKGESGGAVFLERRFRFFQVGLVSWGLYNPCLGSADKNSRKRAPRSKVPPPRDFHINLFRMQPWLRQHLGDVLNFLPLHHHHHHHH

human C2 R519A = target: T2, human C2 R519A (human, UniProt P06681 21-752)
T2 sequence: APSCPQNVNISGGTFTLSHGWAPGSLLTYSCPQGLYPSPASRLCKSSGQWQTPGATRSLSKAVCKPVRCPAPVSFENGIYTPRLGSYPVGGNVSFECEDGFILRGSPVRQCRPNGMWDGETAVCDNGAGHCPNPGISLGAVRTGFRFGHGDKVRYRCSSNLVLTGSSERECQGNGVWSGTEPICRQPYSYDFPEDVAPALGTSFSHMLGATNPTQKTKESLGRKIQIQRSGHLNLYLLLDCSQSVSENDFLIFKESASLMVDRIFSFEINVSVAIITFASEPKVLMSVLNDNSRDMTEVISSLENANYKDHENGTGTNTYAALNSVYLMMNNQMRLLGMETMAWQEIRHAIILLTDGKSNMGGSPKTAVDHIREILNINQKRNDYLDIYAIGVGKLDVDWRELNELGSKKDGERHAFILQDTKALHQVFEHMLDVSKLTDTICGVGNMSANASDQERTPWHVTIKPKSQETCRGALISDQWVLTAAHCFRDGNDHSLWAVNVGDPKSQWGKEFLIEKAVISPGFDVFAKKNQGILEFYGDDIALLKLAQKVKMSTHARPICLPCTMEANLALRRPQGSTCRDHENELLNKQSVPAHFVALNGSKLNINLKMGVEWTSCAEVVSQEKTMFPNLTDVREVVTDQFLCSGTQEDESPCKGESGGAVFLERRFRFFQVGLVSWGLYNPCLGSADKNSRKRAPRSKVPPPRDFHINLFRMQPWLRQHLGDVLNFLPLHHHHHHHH

human C2 G530A = target: T3, human C2 G530A (human, UniProt P06681 21-752)
T3 sequence: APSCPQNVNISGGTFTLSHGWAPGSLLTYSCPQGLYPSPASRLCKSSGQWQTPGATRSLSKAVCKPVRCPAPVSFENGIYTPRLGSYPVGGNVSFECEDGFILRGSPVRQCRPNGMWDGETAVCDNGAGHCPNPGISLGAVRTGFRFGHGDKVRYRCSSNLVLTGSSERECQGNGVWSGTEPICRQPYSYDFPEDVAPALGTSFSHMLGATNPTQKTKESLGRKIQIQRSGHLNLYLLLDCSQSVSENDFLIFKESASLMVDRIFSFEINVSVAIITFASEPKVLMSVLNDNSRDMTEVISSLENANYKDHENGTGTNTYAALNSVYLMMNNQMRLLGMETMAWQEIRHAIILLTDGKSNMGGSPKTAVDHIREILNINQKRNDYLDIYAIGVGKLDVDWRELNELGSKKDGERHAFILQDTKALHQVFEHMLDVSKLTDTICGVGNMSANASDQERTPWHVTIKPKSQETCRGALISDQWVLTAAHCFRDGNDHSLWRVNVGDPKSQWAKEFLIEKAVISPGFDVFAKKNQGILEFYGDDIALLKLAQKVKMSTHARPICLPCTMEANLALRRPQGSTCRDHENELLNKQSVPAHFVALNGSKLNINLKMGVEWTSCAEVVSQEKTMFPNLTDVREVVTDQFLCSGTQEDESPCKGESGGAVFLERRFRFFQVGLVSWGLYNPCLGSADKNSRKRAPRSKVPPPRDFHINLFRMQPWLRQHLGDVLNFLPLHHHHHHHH

human C2 L620A = target: T4, human C2 L620A (human, UniProt P06681 21-752)
T4 sequence: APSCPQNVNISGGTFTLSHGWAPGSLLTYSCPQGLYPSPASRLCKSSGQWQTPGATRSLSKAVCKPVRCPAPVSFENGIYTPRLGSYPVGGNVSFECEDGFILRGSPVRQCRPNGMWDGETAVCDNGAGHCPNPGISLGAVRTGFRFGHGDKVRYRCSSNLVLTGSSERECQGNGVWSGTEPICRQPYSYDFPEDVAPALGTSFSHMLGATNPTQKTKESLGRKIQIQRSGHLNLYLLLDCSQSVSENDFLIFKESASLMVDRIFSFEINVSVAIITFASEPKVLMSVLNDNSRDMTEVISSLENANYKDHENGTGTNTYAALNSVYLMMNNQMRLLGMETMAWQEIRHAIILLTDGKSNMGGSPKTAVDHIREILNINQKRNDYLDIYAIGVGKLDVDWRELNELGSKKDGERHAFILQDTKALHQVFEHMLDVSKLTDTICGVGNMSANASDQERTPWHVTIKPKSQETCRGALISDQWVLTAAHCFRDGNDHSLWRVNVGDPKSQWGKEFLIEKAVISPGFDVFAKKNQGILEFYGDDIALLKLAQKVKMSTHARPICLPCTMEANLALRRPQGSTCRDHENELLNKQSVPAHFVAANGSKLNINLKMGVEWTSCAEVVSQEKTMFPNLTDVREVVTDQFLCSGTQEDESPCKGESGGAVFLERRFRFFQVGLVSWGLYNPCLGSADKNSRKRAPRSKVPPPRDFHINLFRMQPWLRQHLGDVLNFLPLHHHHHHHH

B1: RF16-226 (antibody, human IgG4 S228P, lambda)
heavy: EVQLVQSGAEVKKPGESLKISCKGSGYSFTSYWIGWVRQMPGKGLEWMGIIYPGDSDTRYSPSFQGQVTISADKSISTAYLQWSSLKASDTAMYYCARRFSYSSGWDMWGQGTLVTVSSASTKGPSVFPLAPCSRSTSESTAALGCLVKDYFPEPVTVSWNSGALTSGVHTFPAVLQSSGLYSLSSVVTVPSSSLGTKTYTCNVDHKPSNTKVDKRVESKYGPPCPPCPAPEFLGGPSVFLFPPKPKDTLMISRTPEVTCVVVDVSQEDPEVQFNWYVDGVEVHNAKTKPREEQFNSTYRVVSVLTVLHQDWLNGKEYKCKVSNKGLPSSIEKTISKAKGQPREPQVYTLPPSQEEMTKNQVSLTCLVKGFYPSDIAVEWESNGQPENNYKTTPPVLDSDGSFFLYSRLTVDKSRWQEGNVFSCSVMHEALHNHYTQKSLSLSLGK
light: SYELTQPPSVSVSPGQTARITCSGDALTSKYVAWYQQKSGLAPLLVIYEDTRRPSGIPAKFSGSSSGSVATLTISGAHGDDEADYYCYSTDASGHQRVFGGGTKLTVLSQPKAAPSVTLFPPSSEELQANKATLVCLISDFYPGAVTVAWKADGSPVKAGVETTKPSKQSNNKYAASSYLSLTPEQWKSHRSYSCQVTHEGSTVEKTVAPTECS
notes: pH-dependent anti-C2 antibody from a phage display library; also called WT
Kd (human C2 A470S): 7.8 nM
Kd (human C2 R519A): 11.2 nM
Kd (human C2 G530A): 16.7 nM
Kd (human C2 L620A): 11.1 nM
